Reference: patent publication US20220406376A1 (MacroGenics, published 2022)
Where a chain is given by its changes, count along the chain named.

B1: chCD137 MAB-5 (antibody, V domains shown)
VH: QVQLKESGPGLVAPSQSLSITCTVSGFSLTSYDISWIRQPPGKGLEWLGVVWTGGGTNYNSAFMSRLSISKDNSKSQVFLKMNSLQTDDTAIYYCERVDYWGQGTSVTVSS
VL: DVVMTQTPLSLPVSLGDQASISCRSSQSLVHSNGNTYLHWYLQKPGQSPKLLIYKVSNRFSGVPDRFSGSGSGTDFTLKISRVEAEDLGVYFCSQSTHVPWTFGGGTKLEIK
B2: chCD137 MAB-3 (antibody, V domains shown)
VH: QVQLQQPGAELVRPGASVKLSCKASGYTFTSYWINWVKQRPGQGLEWIGNIYPSDSYTNYNQKFKDKATLTVDKSSSTAYMQLSSPTSEDSAVYYCTRDYGSSYSFDYWGQGTTLTVSS
VL: DIQMTQTTSSLSASLGDRVTISCRPSQDISNYLNWYQQKPDGTVKLLIYYTSRLRSGVPSRFSGSGSGTDYSLTISNLEQEDIATYFCQQGDTLPYTFGGGTKLEIK
B3: chCD137 MAB-4 (antibody, V domains shown)
VH: QVQLQQPGAELVRPGASVKLSCKASGYTFTSYWINWVKQRPGQGLEWIGNIYPSDSYTNYDQKFKDKATLTVDKSSSTAYMQLSSPTSEDSAVYYCTKSGEYGKIGYYAMDYWGQGTSVTVSS
VL: B2 VL with P25A, R55H, D92N
B4: CD137 MAB-1 (antibody, V domains shown)
VH: QVQLQQWGAGLLKPSETLSLTCAVYGGSFSGYYWSWIRQSPEKGLEWIGEINHGGYVTYNPSLESRVTISVDTSKNQFSLKLSSVTAADTAVYYCARDYGPGNYDWYFDLWGRGTLVTVSS
VL: EIVLTQSPATLSLSPGERATLSCRASQSVSSYLAWYQQKPGQAPRLLIYDASNRATGIPARFSGSGSGTDFTLTISSLEPEDFAVYYCQQRSNWPPALTFGGGTKVEIK
notes: also called urelumab; BMS-663513
B5: TRIDENT-1 (bispecific antibody, human IgG1, kappa, L234A L235A)
chain 1: DIQMTQSPSSLSASVGDRVTITCRPSQDISNYLNWYQQKPDKTVKLLIYYTSRLRSGVPSRFSGSGSGTDFTFTISSLQPEDIATYFCQQGDTLPYTFGQGTKLEIKGGGSGGGGQVQLVQSGAEVKKPGASVKVSCKASGYTFTSYWINWVKQAPGQGLEWIGNIYPSDSYTNYNQKFKDKATITADKSTSTAYMELSSLRSEDTAVYYCTRDYGSAYSMSTWGQGTTVTVSSASTKGEVAACEKEVAALEKEVAALEKEVAALEKGGGDKTHTCPPCPAPEAAGGPSVFLFPPKPKDTLMISRTPEVTCVVVDVSHEDPEVKFNWYVDGVEVHNAKTKPREEQYNSTYRVVSVLTVLHQDWLNGKEYKCKVSNKALPAPIEKTISKAKGQPREPQVYTLPPSREEMTKNQVSLWCLVKGFYPSDIAVEWESNGQPENNYKTTPPVLDSDGSFFLYSKLTVDKSRWQQGNVFSCSVMHEALHNHYTQKSLSLSPGK
chain 2: DIQMTQSPSSLSASVGDRVTITCRPSQDISNYLNWYQQKPDKTVKLLIYYTSRLRSGVPSRFSGSGSGTDFTFTISSLQPEDIATYFCQQGDTLPYTFGQGTKLEIKGGGSGGGGQVQLVQSGAEVKKPGASVKVSCKASGYTFTSYWINWVKQAPGQGLEWIGNIYPSDSYTNYNQKFKDKATITADKSTSTAYMELSSLRSEDTAVYYCTRDYGSAYSMSTWGQGTTVTVSSASTKGKVAACKEKVAALKEKVAALKEKVAALKE
heavy: QVTLRESGPALVKPTQTLTLTCTFSGFSLSTSGMSVGWIRQPPGKALEWLADIWWDDKKDYNPSLKSRLTISKDTSKNQVVLKVTNMDPADTATYYCARSMITNWYFDVWGAGTTVTVSSASTKGPSVFPLAPSSKSTSGGTAALGCLVKDYFPEPVTVSWNSGALTSGVHTFPAVLQSSGLYSLSSVVTVPSSSLGTQTYICNVNHKPSNTKVDKRVEPKSCDKTHTCPPCPAPEAAGGPSVFLFPPKPKDTLMISRTPEVTCVVVDVSHEDPEVKFNWYVDGVEVHNAKTKPREEQYNSTYRVVSVLTVLHQDWLNGKEYKCKVSNKALPAPIEKTISKAKGQPREPQVYTLPPSREEMTKNQVSLSCAVKGFYPSDIAVEWESNGQPENNYKTTPPVLDSDGSFFLVSKLTVDKSRWQQGNVFSCSVMHEALHNRYTQKSLSLSPGK
light: DIQMTQSPSTLSASVGDRVTITCRASQSVGYMHWYQQKPGKAPKLLIYDTSKLASGVPSRFSGSGSGTEFTLTISSLQPDDFATYYCFQGSGYPFTFGGGTKLEIKRTVAAPSVFIFPPSDEQLKSGTASVVCLLNNFYPREAKVQWKVDNALQSGNSQESVTEQDSKDSTYSLSSTLTLSKADYEKHKVYACEVTHQGLSSPVTKSFNRGEC
notes: also called CD137×CD137×RSV control molecule; CD137×RSV control molecule

Assays:
[1] = target: T1, CD137 on the surface of cells (activated human T cells; engineered CHO cells) (human, UniProt Q07011 24-255); assay: flow cytometry on activated pan T cells gated CD8+, anti-hFc APC MFI
T1 construct: whole, on cells; also called human CD137; cell surface expressed CD137
Procedure: Three antibodies were selected for further study. For such evaluations, purified pan T-cells (see above) were stimulated with anti-CD3/CD28 beads (cells:beads=1:1) for 72 hours in the presence of IL-2 (100 U/mL). 100 μL of activated T cells (1.0×10⁶ cells/mL) and 100 μL of serially diluted (5- or 10-fold dilutions) test article (antibody or bispecific diabody) was added to each well of microtiter assay plate(s), mixed and incubated at RT for 45 min. The cells were washed with FACS Buffer and secondary antibody (anti-human-Fc region-APC) was then added to each well; mixed and incubated at RT for 30 min. Cells were then washed FACS Buffer and T cell surface marker antibodies (anti-CD4 labeled with V510, and anti-CD8 labeled with FITC) were then added to each well; mixed and incubated at RT for 30 min. Cells were washed and resuspended in 100 μL FACS Buffer and analyzed by flow cytometry (BD LSR Fortessa or FACSCanto 11) for cell event collection. Data analysis were performed via FloJo v10.
Chimeric antibodies having human IgG1 Fc regions and murine VH/VL domains were generated (designated: chCD137 MAB-1, chCD137 MAB-2, chCD137 MAB-3, chCD137 MAB-4 and chCD137 MAB-5, respectively), and were tested for their ability to bind to activated CD8⁺ T cells.

[2] = target: T2, extracellular portion of human CD137 fused to a histidine-containing peptide (human, UniProt Q07011 24-186); assay: SPR (BIACORE); antibody captured on anti-human Fc; huCD137 25 and 100 nM; 1:1 Langmuir
T2 construct: extracellular domain; also called huCD137; His-tagged soluble human CD137
Procedure: Thus, an extracellular portion of human CD137 fused to a histidine-containing peptide (“huCD137”) was passed over a surface coated with immobilized antibody. Briefly, each test molecule was captured onto an F(ab)₂ goat-anti-human Fc-coated surface and then incubated in the presence of different concentrations (25 nM and 100 nM) of huCD137. The kinetics of binding were determined via BIACORE® analysis binding (normalized 1:1 Langmuir binding model).

[3] = target: T1, CD137 on the surface of cells …; assay: flow cytometry on activated pan T cells (donor D46433, CD8 PE), anti-hFc APC MFI
[4] = target: T3, HER2/neu on the surface of target cells (N87, JIMT-1, MCF-7, MDA-MB231) (UniProt P04626 23-1255, limits assumed); assay: flow cytometry on N87 cells, anti-hFc APC MFI
T3 construct: whole, on cells

[5] = target: T1, CD137 on the surface of cells …; assay: flow cytometry on activated pan T cells (donor D46433, CD8 PE), anti-hFc APC MFI; remark: listed apart in the source
[6] = target: T4, 5T4 on the surface of target cells (JIMT-1, SKOV-3) (UniProt Q13641 32-420, limits assumed); assay: flow cytometry on JIMT-1 (5T4 hi) cells, anti-hFc APC MFI
T4 construct: whole, on cells
T4 sequence (looked up): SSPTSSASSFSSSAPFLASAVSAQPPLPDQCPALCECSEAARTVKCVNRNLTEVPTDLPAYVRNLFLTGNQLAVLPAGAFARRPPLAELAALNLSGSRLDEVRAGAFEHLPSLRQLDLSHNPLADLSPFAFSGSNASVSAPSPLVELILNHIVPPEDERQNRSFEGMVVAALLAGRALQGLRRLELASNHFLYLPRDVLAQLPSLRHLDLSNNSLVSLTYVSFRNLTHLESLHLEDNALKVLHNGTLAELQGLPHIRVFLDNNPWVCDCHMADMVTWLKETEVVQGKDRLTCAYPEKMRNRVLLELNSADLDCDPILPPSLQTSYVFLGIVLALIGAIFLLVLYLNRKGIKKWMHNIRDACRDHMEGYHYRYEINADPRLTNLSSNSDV

[7] = target: T1, CD137 on the surface of cells …; assay: flow cytometry on activated CD8+ T cells (donor D59788, CD8 FITC), anti-hFc APC MFI

T1 sequence (Q07011 24-255, change not shown): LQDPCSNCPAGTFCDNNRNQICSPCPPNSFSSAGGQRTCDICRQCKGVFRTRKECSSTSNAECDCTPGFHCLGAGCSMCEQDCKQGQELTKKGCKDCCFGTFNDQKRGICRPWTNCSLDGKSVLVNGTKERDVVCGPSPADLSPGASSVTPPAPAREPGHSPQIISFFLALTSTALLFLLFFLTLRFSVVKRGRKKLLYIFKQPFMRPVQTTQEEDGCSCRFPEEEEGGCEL

Binder	EC50 (read off the curve) [1] [ng/mL]	Kd [2] [nM]	koff [2] [s⁻¹]	kon [2] [M⁻¹ s⁻¹]	further results
B1	~100	–	–	–	–
B2	~2	23	0.02	890000	–
B3	~20	6.1	0.00092	150000	–
B4	~5	–	–	–	–
B5	–	–	–	–	EC50 (read off the curve) [3]: ~0.03 nM; binding result [4]: no binding (tested: about 60 nM (last point)); EC50 (read off the curve) [5]: ~0.03 nM; binding result [6]: no binding (tested: 10 ug/mL); EC50 (read off the curve) [7]: ~7 ng/mL
